Reference: US20150344540A1, “NOVEL GLP-1 RECEPTOR AGONISTS WITH CHOLESTEROL EFFLUX ACTIVITY” (NOVO NORDISK A/S, priority 2012, published 2015)
Where no end group is shown, it is not given here. [ ]: non-standard residue; d: D form. Aib = CC(C)(N)C(=O)O

B1: [Aib8,Glu23,Val25,Glu34,Lys35,Aib36,Lys37]-GLP-1-(7-37)-peptidyl-His-Phe-Leu amide (peptide)
peptide: H[Aib]EGTFTSDVSSYLEGEAVKEFIAWLVEK[Aib]KHFL-NH2
modifications: N-terminus assumed
SMILES: CC[C@H](C)[C@H](NC(=O)[C@H](Cc1ccccc1)NC(=O)[C@H](CCC(=O)O)NC(=O)[C@H](CCCCN)NC(=O)[C@@H](NC(=O)[C@H](C)NC(=O)[C@H](CCC(=O)O)NC(=O)CNC(=O)[C@H](CCC(=O)O)NC(=O)[C@H](CC(C)C)NC(=O)[C@H](Cc1ccc(O)cc1)NC(=O)[C@H](CO)NC(=O)[C@H](CO)NC(=O)[C@@H](NC(=O)[C@H](CC(=O)O)NC(=O)[C@H](CO)NC(=O)[C@@H](NC(=O)[C@H](Cc1ccccc1)NC(=O)[C@@H](NC(=O)CNC(=O)[C@H](CCC(=O)O)NC(=O)C(C)(C)NC(=O)[C@@H](N)Cc1c[nH]cn1)[C@@H](C)O)[C@@H](C)O)C(C)C)C(C)C)C(=O)N[C@@H](C)C(=O)N[C@@H](Cc1c[nH]c2ccccc12)C(=O)N[C@@H](CC(C)C)C(=O)N[C@H](C(=O)N[C@@H](CCC(=O)O)C(=O)N[C@@H](CCCCN)C(=O)NC(C)(C)C(=O)N[C@@H](CCCCN)C(=O)N[C@@H](Cc1c[nH]cn1)C(=O)N[C@@H](Cc1ccccc1)C(=O)N[C@@H](CC(C)C)C(N)=O)C(C)C
B2: [Aib8,Glu23,Val25,Glu34,Aib36,Lys37]-GLP-1-(7-37)-peptidyl-Glu-Phe-Leu amide (peptide)
peptide: H[Aib]EGTFTSDVSSYLEGEAVKEFIAWLVEG[Aib]KEFL-NH2
modifications: N-terminus assumed
SMILES: CC[C@H](C)[C@H](NC(=O)[C@H](Cc1ccccc1)NC(=O)[C@H](CCC(=O)O)NC(=O)[C@H](CCCCN)NC(=O)[C@@H](NC(=O)[C@H](C)NC(=O)[C@H](CCC(=O)O)NC(=O)CNC(=O)[C@H](CCC(=O)O)NC(=O)[C@H](CC(C)C)NC(=O)[C@H](Cc1ccc(O)cc1)NC(=O)[C@H](CO)NC(=O)[C@H](CO)NC(=O)[C@@H](NC(=O)[C@H](CC(=O)O)NC(=O)[C@H](CO)NC(=O)[C@@H](NC(=O)[C@H](Cc1ccccc1)NC(=O)[C@@H](NC(=O)CNC(=O)[C@H](CCC(=O)O)NC(=O)C(C)(C)NC(=O)[C@@H](N)Cc1c[nH]cn1)[C@@H](C)O)[C@@H](C)O)C(C)C)C(C)C)C(=O)N[C@@H](C)C(=O)N[C@@H](Cc1c[nH]c2ccccc12)C(=O)N[C@@H](CC(C)C)C(=O)N[C@H](C(=O)N[C@@H](CCC(=O)O)C(=O)NCC(=O)NC(C)(C)C(=O)N[C@@H](CCCCN)C(=O)N[C@@H](CCC(=O)O)C(=O)N[C@@H](Cc1ccccc1)C(=O)N[C@@H](CC(C)C)C(N)=O)C(C)C
B3: [Aib8,Glu23,Val25,Leu27,Glu34,Lys35,Aib36,Lys37]-GLP-1-(7-37)-peptidyl-Glu-Phe-Leu amide (peptide)
peptide: H[Aib]EGTFTSDVSSYLEGEAVKLFIAWLVEK[Aib]KEFL-NH2
modifications: N-terminus assumed
SMILES: CC[C@H](C)[C@H](NC(=O)[C@H](Cc1ccccc1)NC(=O)[C@H](CC(C)C)NC(=O)[C@H](CCCCN)NC(=O)[C@@H](NC(=O)[C@H](C)NC(=O)[C@H](CCC(=O)O)NC(=O)CNC(=O)[C@H](CCC(=O)O)NC(=O)[C@H](CC(C)C)NC(=O)[C@H](Cc1ccc(O)cc1)NC(=O)[C@H](CO)NC(=O)[C@H](CO)NC(=O)[C@@H](NC(=O)[C@H](CC(=O)O)NC(=O)[C@H](CO)NC(=O)[C@@H](NC(=O)[C@H](Cc1ccccc1)NC(=O)[C@@H](NC(=O)CNC(=O)[C@H](CCC(=O)O)NC(=O)C(C)(C)NC(=O)[C@@H](N)Cc1c[nH]cn1)[C@@H](C)O)[C@@H](C)O)C(C)C)C(C)C)C(=O)N[C@@H](C)C(=O)N[C@@H](Cc1c[nH]c2ccccc12)C(=O)N[C@@H](CC(C)C)C(=O)N[C@H](C(=O)N[C@@H](CCC(=O)O)C(=O)N[C@@H](CCCCN)C(=O)NC(C)(C)C(=O)N[C@@H](CCCCN)C(=O)N[C@@H](CCC(=O)O)C(=O)N[C@@H](Cc1ccccc1)C(=O)N[C@@H](CC(C)C)C(N)=O)C(C)C
B4: [Aib2,Glu21,Lys29,Aib30,Glu32,Phe33,Leu34,Glu35,Leu36,Leu37]-Exendin-4-(1-37)-peptide amide (peptide)
peptide: H[Aib]EGTFTSDLSKQMEEEAVREFIEWLKNK[Aib]PEFLELL-NH2
modifications: N-terminus assumed
SMILES: CC[C@H](C)[C@H](NC(=O)[C@H](Cc1ccccc1)NC(=O)[C@H](CCC(=O)O)NC(=O)[C@H](CCCNC(=N)N)NC(=O)[C@@H](NC(=O)[C@H](C)NC(=O)[C@H](CCC(=O)O)NC(=O)[C@H](CCC(=O)O)NC(=O)[C@H](CCC(=O)O)NC(=O)[C@H](CCSC)NC(=O)[C@H](CCC(N)=O)NC(=O)[C@H](CCCCN)NC(=O)[C@H](CO)NC(=O)[C@H](CC(C)C)NC(=O)[C@H](CC(=O)O)NC(=O)[C@H](CO)NC(=O)[C@@H](NC(=O)[C@H](Cc1ccccc1)NC(=O)[C@@H](NC(=O)CNC(=O)[C@H](CCC(=O)O)NC(=O)C(C)(C)NC(=O)[C@@H](N)Cc1c[nH]cn1)[C@@H](C)O)[C@@H](C)O)C(C)C)C(=O)N[C@@H](CCC(=O)O)C(=O)N[C@@H](Cc1c[nH]c2ccccc12)C(=O)N[C@@H](CC(C)C)C(=O)N[C@@H](CCCCN)C(=O)N[C@@H](CC(N)=O)C(=O)N[C@@H](CCCCN)C(=O)NC(C)(C)C(=O)N1CCC[C@H]1C(=O)N[C@@H](CCC(=O)O)C(=O)N[C@@H](Cc1ccccc1)C(=O)N[C@@H](CC(C)C)C(=O)N[C@@H](CCC(=O)O)C(=O)N[C@@H](CC(C)C)C(=O)N[C@@H](CC(C)C)C(N)=O
B5: [Aib2,Glu21,Aib30,Leu31,Glu32,Phe33,Leu34,Glu35,Leu36,Leu37]-Exendin-4-(1-37)-peptide amide (peptide)
peptide: H[Aib]EGTFTSDLSKQMEEEAVREFIEWLKNG[Aib]LEFLELL-NH2
modifications: N-terminus assumed
SMILES: CC[C@H](C)[C@H](NC(=O)[C@H](Cc1ccccc1)NC(=O)[C@H](CCC(=O)O)NC(=O)[C@H](CCCNC(=N)N)NC(=O)[C@@H](NC(=O)[C@H](C)NC(=O)[C@H](CCC(=O)O)NC(=O)[C@H](CCC(=O)O)NC(=O)[C@H](CCC(=O)O)NC(=O)[C@H](CCSC)NC(=O)[C@H](CCC(N)=O)NC(=O)[C@H](CCCCN)NC(=O)[C@H](CO)NC(=O)[C@H](CC(C)C)NC(=O)[C@H](CC(=O)O)NC(=O)[C@H](CO)NC(=O)[C@@H](NC(=O)[C@H](Cc1ccccc1)NC(=O)[C@@H](NC(=O)CNC(=O)[C@H](CCC(=O)O)NC(=O)C(C)(C)NC(=O)[C@@H](N)Cc1c[nH]cn1)[C@@H](C)O)[C@@H](C)O)C(C)C)C(=O)N[C@@H](CCC(=O)O)C(=O)N[C@@H](Cc1c[nH]c2ccccc12)C(=O)N[C@@H](CC(C)C)C(=O)N[C@@H](CCCCN)C(=O)N[C@@H](CC(N)=O)C(=O)NCC(=O)NC(C)(C)C(=O)N[C@@H](CC(C)C)C(=O)N[C@@H](CCC(=O)O)C(=O)N[C@@H](Cc1ccccc1)C(=O)N[C@@H](CC(C)C)C(=O)N[C@@H](CCC(=O)O)C(=O)N[C@@H](CC(C)C)C(=O)N[C@@H](CC(C)C)C(N)=O
B6: [Aib2,Glu21,Lys29,Aib30,Leu31,Phe33,Leu34,Glu35,Leu36,Leu37]-Exendin-4-(1-37)-peptide amide (peptide)
peptide: H[Aib]EGTFTSDLSKQMEEEAVREFIEWLKNK[Aib]LSFLELL-NH2
modifications: N-terminus assumed
SMILES: CC[C@H](C)[C@H](NC(=O)[C@H](Cc1ccccc1)NC(=O)[C@H](CCC(=O)O)NC(=O)[C@H](CCCNC(=N)N)NC(=O)[C@@H](NC(=O)[C@H](C)NC(=O)[C@H](CCC(=O)O)NC(=O)[C@H](CCC(=O)O)NC(=O)[C@H](CCC(=O)O)NC(=O)[C@H](CCSC)NC(=O)[C@H](CCC(N)=O)NC(=O)[C@H](CCCCN)NC(=O)[C@H](CO)NC(=O)[C@H](CC(C)C)NC(=O)[C@H](CC(=O)O)NC(=O)[C@H](CO)NC(=O)[C@@H](NC(=O)[C@H](Cc1ccccc1)NC(=O)[C@@H](NC(=O)CNC(=O)[C@H](CCC(=O)O)NC(=O)C(C)(C)NC(=O)[C@@H](N)Cc1c[nH]cn1)[C@@H](C)O)[C@@H](C)O)C(C)C)C(=O)N[C@@H](CCC(=O)O)C(=O)N[C@@H](Cc1c[nH]c2ccccc12)C(=O)N[C@@H](CC(C)C)C(=O)N[C@@H](CCCCN)C(=O)N[C@@H](CC(N)=O)C(=O)N[C@@H](CCCCN)C(=O)NC(C)(C)C(=O)N[C@@H](CC(C)C)C(=O)N[C@@H](CO)C(=O)N[C@@H](Cc1ccccc1)C(=O)N[C@@H](CC(C)C)C(=O)N[C@@H](CCC(=O)O)C(=O)N[C@@H](CC(C)C)C(=O)N[C@@H](CC(C)C)C(N)=O
B7: [Aib8,Glu23,Val25,Glu34,Lys35,Aib36]-GLP-1-(7-37)-peptidyl-Glu-Phe-Leu amide (peptide)
peptide: H[Aib]EGTFTSDVSSYLEGEAVKEFIAWLVEK[Aib]GEFL-NH2
modifications: N-terminus assumed
SMILES: CC[C@H](C)[C@H](NC(=O)[C@H](Cc1ccccc1)NC(=O)[C@H](CCC(=O)O)NC(=O)[C@H](CCCCN)NC(=O)[C@@H](NC(=O)[C@H](C)NC(=O)[C@H](CCC(=O)O)NC(=O)CNC(=O)[C@H](CCC(=O)O)NC(=O)[C@H](CC(C)C)NC(=O)[C@H](Cc1ccc(O)cc1)NC(=O)[C@H](CO)NC(=O)[C@H](CO)NC(=O)[C@@H](NC(=O)[C@H](CC(=O)O)NC(=O)[C@H](CO)NC(=O)[C@@H](NC(=O)[C@H](Cc1ccccc1)NC(=O)[C@@H](NC(=O)CNC(=O)[C@H](CCC(=O)O)NC(=O)C(C)(C)NC(=O)[C@@H](N)Cc1c[nH]cn1)[C@@H](C)O)[C@@H](C)O)C(C)C)C(C)C)C(=O)N[C@@H](C)C(=O)N[C@@H](Cc1c[nH]c2ccccc12)C(=O)N[C@@H](CC(C)C)C(=O)N[C@H](C(=O)N[C@@H](CCC(=O)O)C(=O)N[C@@H](CCCCN)C(=O)NC(C)(C)C(=O)NCC(=O)N[C@@H](CCC(=O)O)C(=O)N[C@@H](Cc1ccccc1)C(=O)N[C@@H](CC(C)C)C(N)=O)C(C)C

Biological target: human GLP-1 receptor (human, UniProt P43220)
Experiment: cell-based or functional assay

| Binder | CRE luciferase EC50, 0% HSA [nM] | CRE luciferase EC50, 1% HSA [nM] |
| --- | --- | --- |
| B1 | 0.205 | 0.062 |
| B2 | 0.034 | 0.013 |
| B3 | 0.269 | 0.104 |
| B4 | 0.058 | 0.032 |
| B5 | 0.067 | 0.032 |
| B6 | 0.358 | 0.145 |
| B7 | 0.039 | 0.013 |
